This test concerns the target cynomolgus heparanase (cynomolgus). The test can be described thus: cross species capture ELISA, heparanase captured by rabbit anti-heparanase antibody, exhaustive supernatant 1:5, anti-human IgG Fc detection.

cynomolgus heparanase (cynomolgus), sequence (chain, as listed by the source): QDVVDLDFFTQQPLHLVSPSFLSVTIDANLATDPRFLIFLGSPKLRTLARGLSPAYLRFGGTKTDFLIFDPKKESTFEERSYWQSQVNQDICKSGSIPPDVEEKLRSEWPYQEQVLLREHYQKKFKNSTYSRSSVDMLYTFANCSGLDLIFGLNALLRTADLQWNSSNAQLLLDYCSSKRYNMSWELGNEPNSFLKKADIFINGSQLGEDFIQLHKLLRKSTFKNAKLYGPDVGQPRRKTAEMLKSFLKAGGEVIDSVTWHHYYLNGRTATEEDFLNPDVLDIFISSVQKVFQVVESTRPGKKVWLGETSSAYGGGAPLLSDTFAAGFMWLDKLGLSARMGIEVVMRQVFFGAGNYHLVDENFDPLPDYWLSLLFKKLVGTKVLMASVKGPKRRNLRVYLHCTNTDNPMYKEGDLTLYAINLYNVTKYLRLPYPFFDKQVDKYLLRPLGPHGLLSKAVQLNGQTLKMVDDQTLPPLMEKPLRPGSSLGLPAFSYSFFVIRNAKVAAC

B1: monoclonal antibody 15A1.2 (antibody, V domains shown)
VH: QVQLVQSGAEVKKPGASVKVSCKVSGYTLTELSMHWVRQAPGKGLEWMGGFDPEDGETIFAQKFQGRVTMTEDTSTDTAYMELSSLRSEDTAVYYCATGLRFLEWFLWGWDVWGQGTTVTVSS
VL: DIQMTQSPSSVSASVGDRVTITCRASQGISNWLAWYQQTPGKAPQLLIYGASSLQSGVPSRFSGSGSGTDFTLTISSLQPEDFATYYCQQADSFPPTFGQGTKVEIK
In the case of B1, the OD, binding to heparanase (Cyno) was found to be 0.11 OD units.

The record behind these values is patent US20100233154A1, “TARGETED BINDING AGENTS DIRECTED TO HEPARANASE AND USES THEREOF 463” (MedImmune Limited, priority 2008, published 2010).
